Experimental data reported in patent US20170173107A1 (University of Pennsylvania, published 2017).
Positions of bridges follow the written chain, without caps; N, C: chain ends. Non-standard residues stand in square brackets, D forms with d. *: point of attachment. ABM1 = 3-(naphthalene-2-sulfonamido)propanoic acid albumin-binding tag, amide-linked to N-terminus, O=C(CCNS(=O)(=O)c1ccc2ccccc2c1)*; ABM2 = diphenyl-cyclohexanol phosphate ester hexanoic acid tag; Trp(1-Me) = Cn1cc(C[C@H](N)C(=O)O)c2ccccc21; NMeI = CC[C@H](C)[C@H](NC)C(=O)O; Sar = CNCC(=O)O

B1: Cp20 (Ac-Ile-[Cys-Val-Trp(Me)-Gln-Asp-Trp-Sar-Ala-His-Arg-Cys]-mIle-NH2) (peptide)
peptide: Ac-ICV[Trp(1-Me)]QDW[Sar]AHRC[NMeI]-NH2
modifications: disulfide 2-12
SMILES: CC[C@H](C)[C@H](NC(C)=O)C(=O)N[C@H]1CSSC[C@@H](C(=O)N(C)[C@H](C(N)=O)[C@@H](C)CC)NC(=O)[C@H](CCCNC(=N)N)NC(=O)[C@H](Cc2c[nH]cn2)NC(=O)[C@H](C)NC(=O)CN(C)C(=O)[C@H](Cc2c[nH]c3ccccc23)NC(=O)[C@H](CC(=O)O)NC(=O)[C@H](CCC(N)=O)NC(=O)[C@H](Cc2cn(C)c3ccccc23)NC(=O)[C@H](C(C)C)NC1=O
notes: Synthetic cyclic 13-residue peptide; also called compstatin analog Cp20; C20
B2: ABM1-Cp20 (peptide)
peptide: ABM1-ICV[Trp(1-Me)]QDW[Sar]AHRC[NMeI]-NH2
modifications: disulfide 2-12
SMILES: CC[C@H](C)[C@H](NC(=O)CCNS(=O)(=O)c1ccc2ccccc2c1)C(=O)N[C@H]1CSSC[C@@H](C(=O)N(C)[C@H](C(N)=O)[C@@H](C)CC)NC(=O)[C@H](CCCNC(=N)N)NC(=O)[C@H](Cc2c[nH]cn2)NC(=O)[C@H](C)NC(=O)CN(C)C(=O)[C@H](Cc2c[nH]c3ccccc23)NC(=O)[C@H](CC(=O)O)NC(=O)[C@H](CCC(N)=O)NC(=O)[C@H](Cc2cn(C)c3ccccc23)NC(=O)[C@H](C(C)C)NC1=O
notes: also called ABMT-Cp20 (misprint of ABM1 in the text)
B3: ABM2-Cp20 (ABM2-Ile-[Cys-Val-Trp(Me)-Gln-Asp-Trp-Sar-Ala-His-Arg-Cys]-mIle-NH2) (peptide)
peptide: ABM2-ICVWQDW[Sar]AHRC[NMeI]-NH2
modifications: disulfide 2-12; not fully specified (residue 4); printed as ABM2-Ile-[Cys-Val-Trp(Me)-Gln-Asp-Trp-Sar-Ala-His-Arg-Cys]-mIle-NH2
notes: also called ABM2-Compstatin 20
B4: ABM2-Cp20-miniPEG-Lys(biotin) (peptide)
peptide: ICVWQDWGAHRCIK
modifications: not fully specified; ABM2 amide-linked to the N-terminus; Trp(Me) at position 4; Sar at position 8; mIle at position 13; disulfide Cys2-Cys12; miniPEG (AEEEA) spacer between mIle13 and the C-terminal Lys; biotin on the Lys side chain; made on Rink amide resin (C-terminal amide)
notes: Captured on streptavidin-coated CM5 chip at about 100 RU; also called biotinylated ABM2-Cp20; immobilized ABM2-Cp20

Assays:
complement component C3 = complement component C3 (human, UniProt P01024 672-1663); experiment: cell-based or functional assay
Chain of complement component C3 (P01024 23-665 P314L limits assumed, chain 1 of 2): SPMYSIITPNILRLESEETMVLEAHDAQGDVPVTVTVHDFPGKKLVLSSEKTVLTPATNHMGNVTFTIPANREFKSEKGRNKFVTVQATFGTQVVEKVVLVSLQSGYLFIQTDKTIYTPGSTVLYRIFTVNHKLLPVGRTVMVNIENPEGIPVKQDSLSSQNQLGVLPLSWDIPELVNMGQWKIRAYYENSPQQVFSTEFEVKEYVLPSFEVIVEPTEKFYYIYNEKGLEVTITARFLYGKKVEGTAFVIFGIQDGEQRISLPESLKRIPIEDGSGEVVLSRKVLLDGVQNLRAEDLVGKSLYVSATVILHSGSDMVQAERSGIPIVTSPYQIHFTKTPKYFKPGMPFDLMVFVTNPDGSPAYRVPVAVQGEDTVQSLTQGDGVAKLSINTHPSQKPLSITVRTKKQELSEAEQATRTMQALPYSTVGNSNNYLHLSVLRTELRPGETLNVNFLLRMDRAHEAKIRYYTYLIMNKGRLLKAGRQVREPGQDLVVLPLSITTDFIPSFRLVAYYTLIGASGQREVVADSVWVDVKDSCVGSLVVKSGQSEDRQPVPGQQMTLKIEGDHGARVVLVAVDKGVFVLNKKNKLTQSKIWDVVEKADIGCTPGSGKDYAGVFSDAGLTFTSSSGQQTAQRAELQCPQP
Chain of complement component C3 (P01024 672-1663 limits assumed, chain 2 of 2): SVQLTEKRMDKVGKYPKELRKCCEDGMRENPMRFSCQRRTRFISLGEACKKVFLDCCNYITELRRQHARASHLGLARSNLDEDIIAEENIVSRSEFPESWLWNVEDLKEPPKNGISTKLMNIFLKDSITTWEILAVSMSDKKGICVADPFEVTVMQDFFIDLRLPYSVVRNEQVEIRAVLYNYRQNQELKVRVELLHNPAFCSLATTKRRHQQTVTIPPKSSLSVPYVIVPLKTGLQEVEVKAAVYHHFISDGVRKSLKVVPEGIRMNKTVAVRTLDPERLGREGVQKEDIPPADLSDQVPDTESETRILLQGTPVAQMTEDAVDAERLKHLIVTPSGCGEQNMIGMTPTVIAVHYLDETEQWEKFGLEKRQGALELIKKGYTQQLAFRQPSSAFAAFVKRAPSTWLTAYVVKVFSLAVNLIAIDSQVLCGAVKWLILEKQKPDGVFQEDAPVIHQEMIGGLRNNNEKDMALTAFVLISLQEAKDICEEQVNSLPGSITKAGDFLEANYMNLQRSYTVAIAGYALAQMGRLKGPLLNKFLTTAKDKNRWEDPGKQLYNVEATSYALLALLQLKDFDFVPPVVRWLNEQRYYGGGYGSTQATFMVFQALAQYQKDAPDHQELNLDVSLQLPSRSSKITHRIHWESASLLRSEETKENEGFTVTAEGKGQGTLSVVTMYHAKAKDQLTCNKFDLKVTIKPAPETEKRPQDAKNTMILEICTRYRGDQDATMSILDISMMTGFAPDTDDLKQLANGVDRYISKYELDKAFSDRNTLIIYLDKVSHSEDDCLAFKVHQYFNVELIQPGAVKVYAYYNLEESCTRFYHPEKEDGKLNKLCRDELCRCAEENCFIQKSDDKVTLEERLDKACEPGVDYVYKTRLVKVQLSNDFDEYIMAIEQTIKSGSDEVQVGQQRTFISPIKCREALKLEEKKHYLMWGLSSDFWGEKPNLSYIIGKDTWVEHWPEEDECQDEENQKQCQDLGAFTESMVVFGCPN

[1] = biological target: T1, C3b (biotinylated, captured on a streptavidin sensor chip) (UniProt P01024 749-1663, biotinylated (site not stated)); experiment: SPR (Biacore 3000), single-cycle kinetics, peptide over captured biotinylated C3b, 1:1 model, 25 °C
T1 construct: range 727-1641; also called site-specifically immobilized C3b
T1 sequence (P01024 23-665 P314L limits assumed, chain 1 of 2): as the sequence (P01024 23-665 P314L limits assumed, chain 1 of 2) above
T1 sequence (P01024 749-1663 limits assumed, chain 2 of 2): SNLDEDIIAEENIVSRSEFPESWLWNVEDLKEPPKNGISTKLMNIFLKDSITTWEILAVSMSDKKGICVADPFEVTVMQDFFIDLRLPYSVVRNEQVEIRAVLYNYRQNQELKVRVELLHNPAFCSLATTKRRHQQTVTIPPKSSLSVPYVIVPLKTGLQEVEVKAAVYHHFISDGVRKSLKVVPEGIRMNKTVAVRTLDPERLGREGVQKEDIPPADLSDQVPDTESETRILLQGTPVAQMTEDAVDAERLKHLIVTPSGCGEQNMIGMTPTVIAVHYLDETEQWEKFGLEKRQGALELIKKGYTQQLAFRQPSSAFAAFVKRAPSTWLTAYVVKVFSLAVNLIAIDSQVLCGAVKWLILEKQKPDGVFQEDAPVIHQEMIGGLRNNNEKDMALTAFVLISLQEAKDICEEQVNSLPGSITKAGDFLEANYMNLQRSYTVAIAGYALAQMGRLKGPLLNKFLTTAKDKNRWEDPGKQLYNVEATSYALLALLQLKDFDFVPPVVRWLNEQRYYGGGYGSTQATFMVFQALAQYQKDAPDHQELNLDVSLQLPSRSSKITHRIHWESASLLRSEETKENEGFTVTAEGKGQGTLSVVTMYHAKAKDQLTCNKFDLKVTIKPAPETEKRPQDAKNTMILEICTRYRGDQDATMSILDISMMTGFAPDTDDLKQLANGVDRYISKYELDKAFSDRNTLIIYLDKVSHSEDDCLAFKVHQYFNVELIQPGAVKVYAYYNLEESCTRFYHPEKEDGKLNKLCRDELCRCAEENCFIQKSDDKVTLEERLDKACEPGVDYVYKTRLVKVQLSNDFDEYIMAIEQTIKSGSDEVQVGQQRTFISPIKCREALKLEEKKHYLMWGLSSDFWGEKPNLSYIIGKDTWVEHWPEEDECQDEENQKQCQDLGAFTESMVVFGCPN
Method: 1.1 Interaction of Compstatin analogues with C3b. […] Individual injections within a cycle were 2 min long with a 5-min dissociation between injections. After the end of the last injection, a 40-min dissociation time was allowed. […] The kinetic evaluation was performed in BiaEvaluation using a single cycle kinetic template (kindly provided by GE Healthcare) by globally fitting each data set to a 1:1 Langmuir binding model to achieve association and dissociation rates (kₐ and kd, respectively); the equilibrium dissociation constant (KD) was calculated from the equation KD=kd/kₐ (FIG. 1). Each assay was performed at least twice.
^aSingle-cycle kinetic analysis of compstatin conjugates was performed. Sets of five increasing concentrations were consecutively injected over a C3b surface (3000-5000 RU density) in a single cycle. The processed signals were fitted to a 1:1 binding model.

baboon albumin = baboon albumin (baboon); experiment: SPR, albumin (6.3-100 µM) over immobilized biotinylated ABM2-Cp20; apparent affinity (KD app) from steady state, single-binding-site model
From the text: 1.2 Interaction of ABM-Compstatin conjugates with albumin.
To confirm the albumin-directed activity of the ABM-compstatin conjugates and further explore their simultaneous binding to C3 and albumin, we performed additional SPR binding studies. […] The biotinylated peptides were immobilized on a streptavidin-coated SPR sensor chip, and the interactions with albumins from different species (human, baboon, bovine, rabbit and mouse) were characterized (Table 3; FIG. 2).

Row | Binder | IC50 (µM), inhibition of immune complex-induced (classical pathway) complement activation in human plasma, ELISA (complement component C3) [µM] | Kd [1] [nM] | koff [1] [s⁻¹] | kon [1] [M⁻¹ s⁻¹] | Kd (baboon albumin) [nM]
1 | B1 | 0.26 | 2.9 | 0.0067 | 2.3e+06 | –
2 | B2 | 0.2 | – | – | – | –
3 | B3 | 0.17 | – | – | – | –
4 | B4 | – | – | – | – | 106000
